# ± gives the uncertainty stated by the source.
# B1: Tumor protein 63, residues 545 to 610; numbered along this chain, Q9H3D4 (parent)
# chain: TDCSIVSFLARLGCSSCLDYFTTQGLTTIYQIEHYSMDDLASLKIPEQFRHAIWKGILDHRQLHEF
# Variants of: B1
# Assay: abundance fitness (aPCA) (normalised: wild type 0, dead -1); higher = more abundant; growth selection in yeast, the domain comes from the species named
# Details: Homo sapiens
row,Variant,abundance fitness
1,L63Y,-0.029 ± 0.033
2,F8N,-0.796 ± 0.069
3,H64R,-0.019 ± 0.025
4,H51R,-0.031 ± 0.018
5,S16Y,-0.156 ± 0.038
6,H34N,0.02 ± 0.029
7,F21Q,-0.965 ± 0.095
8,S36W,-0.436 ± 0.05
9,Y35W,0.001 ± 0.024
10,I32N,-0.841 ± 0.1
11,G56C,-0.472 ± 0.047
12,D2L,-0.338 ± 0.026
13,G56F,-0.649 ± 0.061
14,Y30K,0.001 ± 0.019
15,Y20M,-0.02 ± 0.027
16,F66E,-0.678 ± 0.22
17,F49H,-0.004 ± 0.042
18,G13Y,-0.298 ± 0.057
19,F8Q,-0.835 ± 0.064
20,C3H,-0.08 ± 0.044
21,Y30C,0.005 ± 0.075
22,L40C,-0.509 ± 0.066
23,S16A,-0.037 ± 0.021
24,E47R,-0.054 ± 0.027

row,Variant,abundance fitness
1,L12T,-0.06 ± 0.037
2,T22I,-0.027 ± 0.027
3,I5P,-1.04 ± 0.085
4,L12I,0.021 ± 0.036
5,Q62H,-0.011 ± 0.031
6,S7Q,-0.067 ± 0.031
7,H60Q,-0.02 ± 0.059
8,I5E,-0.976 ± 0.071
9,S16T,-0.073 ± 0.03
10,Q31D,-0.019 ± 0.035
11,P46I,-1.01 ± 0.1
12,I29S,-0.245 ± 0.024
13,L26V,-0.054 ± 0.025
14,L26G,-0.935 ± 0.064
15,E65A,0.002 ± 0.036
16,H51P,-0.031 ± 0.033
17,E47D,0.012 ± 0.038
18,L40S,-0.701 ± 0.038
19,A52L,-0.024 ± 0.023
20,Y35H,-0.103 ± 0.034
21,T27Y,-0.079 ± 0.038
22,S36L,-0.177 ± 0.027
23,L58S,-0.007 ± 0.022
24,L26R,-0.436 ± 0.022

row,Variant,abundance fitness
1,T27K,-0.032 ± 0.038
2,T28Q,-0.012 ± 0.029
3,E65L,-0.08 ± 0.035
4,S7E,-0.024 ± 0.041
5,E33I,-0.139 ± 0.069
6,Q31V,-0.841 ± 0.051
7,L26D,-0.552 ± 0.054
8,T1E,-0.021 ± 0.054
9,Q31L,-0.431 ± 0.034
10,L43R,-0.304 ± 0.025
11,C14V,-0.027 ± 0.022
12,Y30H,0.057 ± 0.044
13,E47A,-0.014 ± 0.025
14,D59A,-0.009 ± 0.022
15,F66V,0.071 ± 0.051
16,R61E,-0.047 ± 0.035
17,E47F,-0.127 ± 0.053
18,S4Q,-0.078 ± 0.03
19,K55A,-0.074 ± 0.027
20,S15E,-0.067 ± 0.049
21,R50Y,-0.174 ± 0.036
22,Q24R,-0.023 ± 0.017
23,F66I,-0.011 ± 0.051
24,H51D,-0.028 ± 0.036

row,Variant,abundance fitness
1,F21A,-1.02 ± 0.082
2,F8W,-0.024 ± 0.041
3,G25Y,-0.349 ± 0.04
4,D19Y,-0.103 ± 0.024
5,I45F,-0.358 ± 0.036
6,I29P,-0.309 ± 0.04
7,F66Y,0.044 ± 0.1
8,A10G,-0.1 ± 0.035
9,L26M,-0.112 ± 0.032
10,G25N,-0.048 ± 0.07
11,I53F,-0.921 ± 0.089
12,R11F,-0.268 ± 0.039
13,V6R,-0.012 ± 0.028
14,T27Q,-0.049 ± 0.035
15,L43T,-0.396 ± 0.033
16,S42V,-0.011 ± 0.023
17,L58P,-0.272 ± 0.028
18,S42E,0.008 ± 0.026
19,I45A,-0.721 ± 0.043
20,Y30T,-0.001 ± 0.034
21,C17K,-0.619 ± 0.043
22,A41L,-0.06 ± 0.027
23,F21E,-0.983 ± 0.12
24,T1D,-0.039 ± 0.038

row,Variant,abundance fitness
1,Q62G,-0.023 ± 0.017
2,F8H,-0.41 ± 0.14
3,E65M,-0.089 ± 0.076
4,F49G,-0.174 ± 0.027
5,D19T,-0.002 ± 0.035
6,G56S,-0.142 ± 0.022
7,F8T,-0.592 ± 0.05
8,H60M,-0.011 ± 0.025
9,S16F,-0.106 ± 0.031
10,H34M,-0.044 ± 0.027
11,L58C,0.01 ± 0.041
12,I53T,-0.787 ± 0.064
13,S15T,0 ± 0.029
14,D19F,-0.09 ± 0.031
15,G13I,-0.814 ± 0.41
16,E47Y,-0.002 ± 0.037
17,L58N,-0.039 ± 0.074
18,A41H,-0.081 ± 0.047
19,D38R,-0.03 ± 0.022
20,A41W,-0.111 ± 0.025
21,L18W,-0.203 ± 0.08
22,F8A,-0.58 ± 0.034
23,T23L,-0.03 ± 0.023
24,Q48I,-0.052 ± 0.056

row,Variant,abundance fitness
1,L12D,-0.836 ± 0.078
2,L9S,-0.869 ± 0.043
3,L26T,-0.272 ± 0.025
4,F66P,0.086 ± 0.063
5,A10V,-0.15 ± 0.039
6,V6F,-0.06 ± 0.036
7,S4H,-0.114 ± 0.029
8,L18G,-0.08 ± 0.031
9,F66C,0.033 ± 0.2
10,Q31P,-0.737 ± 0.044
11,Q24T,-0.062 ± 0.026
12,S7L,-0.137 ± 0.027
13,T28H,-0.056 ± 0.042
14,Q62A,-0.011 ± 0.025
15,C14T,-0.143 ± 0.037
16,C14I,-0.068 ± 0.039
17,H60L,-0.018 ± 0.023
18,D39T,-0.124 ± 0.036
19,I57P,-1.04 ± 0.095
20,G25P,-0.885 ± 0.075
21,H60R,0.012 ± 0.026
22,E33A,-0.042 ± 0.029
23,S15Q,0.008 ± 0.033
24,S7H,-0.069 ± 0.03

row,Variant,abundance fitness
1,L40T,-0.933 ± 0.078
2,H64V,-0.019 ± 0.019
3,R61K,0.058 ± 0.045
4,C14S,-0.128 ± 0.023
5,G13M,-0.178 ± 0.036
6,T28M,-0.038 ± 0.033
7,G56H,-0.363 ± 0.061
8,Q31C,-0.159 ± 0.033
9,A52G,-0.086 ± 0.021
10,E33H,-0.039 ± 0.044
11,V6S,0.003 ± 0.026
12,P46Q,-0.387 ± 0.041
13,F49N,-0.058 ± 0.037
14,G56T,-0.541 ± 0.042
15,D59F,-0.09 ± 0.031
16,D2T,-0.185 ± 0.041
17,G56N,-0.361 ± 0.035
18,F66D,-0.119 ± 0.46
19,T22W,-0.096 ± 0.027
20,L58Y,0.026 ± 0.045
21,L43G,-0.702 ± 0.034
22,M37E,-0.014 ± 0.039
23,Y35N,-0.392 ± 0.032
